Measurements: US20250346646A1, “COMPOUNDS USEFUL TO TREAT METABOLIC DISORDERS” (President and Fellows of Harvard College, priority 2016, published 2025)

B1: anti-aP2 mAb: anti-aP2 monoclonal antibody of Example 4, identity not stated (probably CA33) (antibody, V domains shown)
VH: QSVEESGGRLVTPGTPLTLTCTVSGFSLSTYYMSWVRQAPGKGLEWIGIIYPSGSTYCASWAKGRFTISKASTTVDLKITSPTTEDTATYFCARPDNDGTSGYLSGFGLWGQGTLVTVSS
VL: DVVMTQTPASVSEPVGGTVTIKCQASEDISRYLVWYQQKPGQPPKRLIYKASTLASGVPSRFKGSGSGTDFTLTISDLECDDAATYYCQCTYGTYAGSFFYSFGGGTEVVVE
B2: aP2: adipocyte lipid binding protein (aP2), also known as fatty-acid binding protein 4 (FABP4), recombinant (protein)
chain: MCDAFVGTWKLVSSENFDDYMKEVGVGFATRKVAGMAKPNMIISVNGDLVTIRSESTFKNTEISFKLGVEFDEITADDRKVKSIITLDGGALVQVQKWDGKSTTIKRKRDGDKLVVECVMKGVTSTRVYERA

How the values were obtained:
[1] = system: mice with diet induced obesity; assay: Glucagon challenge test in mice with diet induced obesity; assay type: in vivo, mouse; conditions: HFD 20 weeks; 33 mg/kg i.p. twice a week for 3 weeks; 150 μg/kg glucagon after 4-hour fast; vs vehicle
Method: Mice were fed high fat diet for 20 weeks prior to the experiment. Starting from the 20th week, mice were injected with vehicle or anti-aP2 mAb at a dose of 33 mg/kg injected i.p. twice a week for 3 weeks.

human glucagon receptor = human glucagon receptor (Homo sapiens, UniProt P47871); assay: cAMP-response element luciferase reporter in CHO-K1 cells expressing human GCGR-GFP; assay type: cell-based; conditions: CHO-K1 human GCGR cAMP reporter
Chain of human glucagon receptor (P47871 26-477): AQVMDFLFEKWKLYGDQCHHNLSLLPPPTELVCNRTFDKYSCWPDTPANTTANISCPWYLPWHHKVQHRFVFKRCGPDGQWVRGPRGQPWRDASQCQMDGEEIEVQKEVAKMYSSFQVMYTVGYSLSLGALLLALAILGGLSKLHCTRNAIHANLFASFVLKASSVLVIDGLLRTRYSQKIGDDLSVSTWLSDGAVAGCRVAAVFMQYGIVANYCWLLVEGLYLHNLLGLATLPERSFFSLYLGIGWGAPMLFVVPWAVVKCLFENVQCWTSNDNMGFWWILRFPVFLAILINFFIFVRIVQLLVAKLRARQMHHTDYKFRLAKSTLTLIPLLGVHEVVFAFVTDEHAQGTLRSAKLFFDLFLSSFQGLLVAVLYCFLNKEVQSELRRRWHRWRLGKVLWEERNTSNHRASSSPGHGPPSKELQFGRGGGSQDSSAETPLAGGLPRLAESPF
Method: Bar graphs represent mean±standard deviation (s.d.), n=4-5 per group. *P<0.05, **P<0.01, ***P≤0.001, ****P≤0.0001, ns P>0.05. Multiple group comparisons were done using one-way ANOVA statistics with Tukey post-test correction. Graphs show data as mean±standard error of mean (s.e.m.), analyzed using two-way ANOVA.
During cloning hexahistadine and WELQ protease site was added for protein purification. Murine aP2 gene was cloned into pet21+ vector after the hexahistadine tag and TEV protease site for ease of purification.
Plasmids were transfected using Lipofectamine (Invitrogen) according to manufacturer's instructions. Transiently transfected cells were grown in appropriate selection antibiotics where applicable for stable cell line generation. Following three passages under selection media, single cell colonies were picked and expanded for experimentation after validation.

GCGR-ecd = target: T1, GCGR-ecd (Homo sapiens, UniProt P47871); assay: Biolayer interferometry: GCGR-ecd binding to biotin-glucagon with or without aP2; conditions: BLITZ biolayer interferometry
T1 construct: GCGR extracellular domain was cloned into pFastBac shuttle vector; hexahistidine; WELQ protease site; made in house; host or cells: baculovirus expression system (pFastBac)
T1 sequence (P47871 26-136 limits assumed): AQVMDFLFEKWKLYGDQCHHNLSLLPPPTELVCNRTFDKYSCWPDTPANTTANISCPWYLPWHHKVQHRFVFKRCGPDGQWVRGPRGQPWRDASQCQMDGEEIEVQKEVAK

biotin-glucagon = biotin-glucagon (Homo sapiens, UniProt P01275); assay: Bio-Layer Interferometry: aP2 binding to biotin-glucagon; conditions: read-out: Kdapp aP2 / biotinylated glucagon; biolayer interferometry, 25° C., PBS
Chain of biotin-glucagon (P01275 53-81 limits assumed): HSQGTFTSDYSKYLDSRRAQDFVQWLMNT

glucagon = glucagon (Homo sapiens, UniProt P01275); assay: Microscale thermophoresis, binding to glucagon; conditions: read-out: Kd, binding to glucagon; MST
aP2 knockout mice = assay: Glucagon response of aP2 knockout mice given aP2, with or without CA33 preincubation; assay type: in vivo, mouse; conditions: CA33 preincubated with aP2
Description: Mouse and rabbit-mouse hybrid monoclonal antibodies raised against the human and mouse aP2 peptides were produced and screened. […] The systemic improvement in glucose metabolism was further verified using a glucose tolerance test (GTT).

[2] = system: G6Pc and Pck1 expression in primary hepatocytes; assay: Gluconeogenic gene expression (G6Pc, Pck1) in primary hepatocytes; assay type: cell-based, mouse; conditions: glucagon 100 nM plus recombinant aP2, vs glucagon alone
primary hepatocytes = assay: De-novo glucose production in primary hepatocytes; assay type: cell-based, mouse; conditions: 4 hours stimulation, aP2 with glucagon
Description: (§1) Bar graphs represent mean±standard deviation (s.d.), n=4-5 per group. *P≤0.05, **P≤0.01, ***P≤0.001, ****P≤0.0001, ns P>0.05. Multiple group comparisons were done using one-way ANOVA statistics with Tukey post-test correction.

[3] = system: HepG2-C3A human hepatoma cell line; assay: Glycogenolysis (14C-glucose release) in HepG2-C3A cells; assay type: cell-based; conditions: 24 hours stimulation, aP2 with glucagon
Description: as §1

aP2 deficient mice [4] = assay: Hyper-insulinemic-pancreatic clamp in aP2 deficient mice; assay type: in vivo, mouse; conditions: insulin 3 mU/kg/min, vs vehicle
Description: Multiple group comparisons under clamp conditions were done using one-way ANOVA statistics with Tukey post-test correction. Basal and clamp conditions between groups were compared using repeated measures two-way ANOVA with Sidak correction. Graphs show data as mean s.e.m.

aP2 deficient mice [5] = assay: Glucagon injection test (glycaemia) in aP2 deficient mice; conditions: 4-hour food withdrawal
Description: Graphs show data as mean s.e.m. Experiments were repeated at least three times with similar results.
One-way ordinary ANOVA, with Tukey correction was used for multiple group comparisons. Experiments were repeated at least three times with similar results.

Row | Molecule | Response to glucagon injection (glucose levels) [1] | Increase of glucagon potency by aP2 addition (human glucagon receptor) | Change of dissociation constant of glucagon to GCGR-ecd on addition of aP2 (GCGR-ecd) | Kd (biotin-glucagon) [nM] | Kd (glucagon) [nM] | Glucagon responsiveness of aP2 knockout mice (aP2 knockout mice) | Expression of gluconeogenic genes [2] | Hepatic glucose production (primary hepatocytes) | Glycogenolysis [3] | Hepatic glucose production / counterregulatory response to insulin (aP2 deficient mice [4]) | Glycaemia response (glucagon responsiveness) (aP2 deficient mice [5])
1 | B1 | significantly lower response |  |  |  |  |  |  |  |  |  | 
2 | B2 |  | more than one order of magnitude | an order of magnitude decrease | 2340 | ~214 | rescues glucagon unresponsiveness | further increased | increased | increased | not seen | little to no-response
